These results are taken from patent publication US20040161448.

Data set [1] has as its target T1, Soybean Kunitz Trypsin Inhibitor, P01070.
T1 chain: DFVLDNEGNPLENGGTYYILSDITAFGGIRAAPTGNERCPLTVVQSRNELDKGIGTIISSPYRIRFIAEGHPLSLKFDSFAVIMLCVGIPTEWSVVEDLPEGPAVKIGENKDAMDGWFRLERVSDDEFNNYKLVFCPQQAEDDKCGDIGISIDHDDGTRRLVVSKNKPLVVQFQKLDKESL

For data set [2], the target named is T2, soybean Bowman-Birk Inhibitor, P01055.
T2 chain: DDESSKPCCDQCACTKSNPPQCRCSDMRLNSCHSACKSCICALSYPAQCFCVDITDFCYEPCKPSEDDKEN

In data set [3] the target is soybean agglutinin (SBA), P05046.
Chain of soybean agglutinin (SBA), P05046 (P05046 33-285): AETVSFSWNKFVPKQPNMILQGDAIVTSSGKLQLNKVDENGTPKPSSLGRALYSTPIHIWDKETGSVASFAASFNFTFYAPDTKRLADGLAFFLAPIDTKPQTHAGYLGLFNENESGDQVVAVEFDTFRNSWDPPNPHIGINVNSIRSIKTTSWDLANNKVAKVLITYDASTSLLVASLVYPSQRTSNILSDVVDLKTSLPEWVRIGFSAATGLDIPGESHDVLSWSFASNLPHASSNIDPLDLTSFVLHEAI

B1: protease derived from Nocardiopsis sp. NRRL 18262 (protein)
chain: ADIIGGLAYTMGGRCSVGFAATNAAGQPGFVTAGHCGRVGTQVTIGNGRGVFEQSVFPGNDAAFVRGTSNFTLTNLVSRYNTGGYATVAGHNQAPIGSSVCRSGSTTGWHCGTIQARGQSVSYPEGTVTNMTRTTVCAEPGDSGGSYISGTQAQGVTSGGSGNCRTGGTTFYQEVTPMVNSWGVRLRT
Turning to B1, the results for the % of anti-nutritional factor degraded in data set [1], in data set [2] and in data set [3] were 100%, 25% and 75%, respectively.
